Measurements as given in PMC4950008.

These sequences were tested against T1, His-GlnR (UniProt O53830) (assay: EMSA).
T1 sequence: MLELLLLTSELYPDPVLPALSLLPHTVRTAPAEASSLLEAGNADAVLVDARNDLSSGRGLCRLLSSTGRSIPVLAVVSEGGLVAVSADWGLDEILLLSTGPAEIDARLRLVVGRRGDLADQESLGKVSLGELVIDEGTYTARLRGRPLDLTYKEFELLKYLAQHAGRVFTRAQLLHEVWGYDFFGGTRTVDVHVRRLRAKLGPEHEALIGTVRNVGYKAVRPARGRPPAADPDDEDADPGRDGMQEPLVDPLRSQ
“CATGAGCTGATGAATGGAGTCCACTACCGGCCGGTGCGGCGACCAAGGATCTGTTTGCGACGGGATCTGTGCGACGTTGGCGGCAATCAGCTTGTTACAGCTGATAATCCGAGCGTGATCGCGACCTAACCGGCAGGCAACGCCGGCATGGTCCCCTGGCACGATGGGACTACTGTCACGCTTGCGCAAACGTGAGCCGATCAGCATCTACGACAAGATC (double strand) [peak 17, Rv1542c (glbN) promoter region]” was tested, and the binding was “binds”.
In the case of “CACAGACTCCATCTGTTGGGGGTTCAACGGGGATTCAACCGGACACTTAGCGCCACTATTGAATATGAATATCATTTGAACGAGAGGTTAACACAGCGTGACGACGGCCCAGGGCGGTGAGTTTGGTCACACGAGCGCTGGGCTCACCACCCCATGCTGGTGGGATTTAGC (double strand) [peak 13, Rv1386 (PE15) promoter region]”, the binding was “binds”.
“GTACGTCCACAATCGAAGGACGCGGAAGCACGGGGCCGCGACCACCGAGACCCGTGGCGGCCCATGGCCGCAAGGAGGCTCCTCGCGAGATTCGTCACGCGTTACCTGGATTTAACCTGCGCCCGTCCGAAGCGCCCGGCTTTTTCGTAGGCTTCGCTGCGGTTGGGGCCAGACAGCGCCGTGAAGCCCGGTGGGTGTGGCCGGCTGACGGGATGGT (double strand) [peak 18, Rv1548c (PPE22)/Rv1549 (fadD11) promoter region]” was tested, and the binding was “binds”.
For “ACTCCCTGCGGCAAGGTGTAGGCCAGCTCGCGCAACTTAACCGCGCACTCGTAGAGCGTCTGGCGGAAATGCGTTTCGGTCATCGGGGTGCCTTCGCTCGTCGGCGAGATCGGCAGCGGTGTCTTGTGCTCATACAGATCAATCTCATTCATCAGAGCCATCATTCGCCGGCTAGCAGCTGCAAATCATCAGCACATCCACGTATGTC (double strand) [Rv1360 upstream region (negative control)]”, the binding was “no binding”.
